The results in this text go back to patent publication US20140363422A1 (IMMUNOQURE, published 2014).

The term EC50 denotes the midpoint of the concentration-response curve. Read a low EC50 as an effect from little substance. In general, kon refers to the second-order rate constant of association. Read a low kon as slower complex formation. As usually defined, the Kd is the free concentration of one partner at which half of the binding sites on the other are occupied at equilibrium, for simple one-to-one binding. Low readings indicate tighter binding, high ones weaker binding. Usually koff stands for the rate constant with which the complex falls apart. Lower therefore signals a long-lived complex. By EC50 (read off the curve) is commonly meant the midpoint of the concentration-response curve.

Assay [1] concerns the target T1, human IL-22 (human, UniProt Q9GZX6 34-179).
T1 construct: also called IL-22(h); interleukin-22
T1 sequence (looked up): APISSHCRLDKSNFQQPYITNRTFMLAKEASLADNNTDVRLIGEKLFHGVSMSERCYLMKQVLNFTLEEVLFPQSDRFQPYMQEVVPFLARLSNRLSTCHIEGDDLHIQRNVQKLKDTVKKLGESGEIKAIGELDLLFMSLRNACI
The assay can be described thus: EC50 in summary table; assay not named, taken as binding ELISA.

The target in assay [2] is T1, human IL-22. The assay can be described thus: SPR (ProteOn XPR36), antibody captured by anti-human IgG (L1), IL-22 injected at 100 to 1.23 nM and buffer.
In assay [3] the target is T2, human IL-17F (human, UniProt Q96PD4 31-163).
T2 construct: Bought recombinant protein; also called IL-17F (h); interleukin-17F
T2 sequence (looked up): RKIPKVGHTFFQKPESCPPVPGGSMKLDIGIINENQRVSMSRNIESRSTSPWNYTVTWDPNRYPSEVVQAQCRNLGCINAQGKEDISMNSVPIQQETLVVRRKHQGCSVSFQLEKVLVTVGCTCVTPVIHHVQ
The assay can be described thus: EC50 in summary table; assay not named, taken as binding ELISA.

Assay [4] concerns the target T2, human IL-17F. The assay can be described thus: cell-based or functional assay.
Assay [5] has as its target T3, IL-17A/IL-17F heterodimer (UniProt Q16552 24-155; Q96PD4 31-163).
T3 sequence (looked up) 1: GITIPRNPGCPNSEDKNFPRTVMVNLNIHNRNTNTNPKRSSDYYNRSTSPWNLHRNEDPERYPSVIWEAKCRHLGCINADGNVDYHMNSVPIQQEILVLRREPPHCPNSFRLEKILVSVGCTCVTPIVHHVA
T3 sequence (looked up) 2: T2 sequence (looked up)
Nature of the assay: cell-based or functional assay.

Assay [6] has as its target T2, human IL-17F. The assay can be described thus: SPR (ProteOn XPR36), antibody captured by anti-human IgG, IL-17F injected.
Assay [7] has as its target T1, human IL-22. Nature of the assay: SPR (ProteOn XPR36), antibody captured by anti-human IgG, IL-22 injected at 100 to 1.23 nM, 1:1 Langmuir fit, mean of two experiments.
Procedure: (§1) Data was referenced using the interspot regions of the sensor chip.
(§2) For affinity determination of the antibodies of the present invention SPR measurements were performed using a ProteOn™ XPR36 instrument, according to the instructions of the manufacturer (BIO-RAD; Hercules Calif., USA). First, anti-human IgG was coupled simultaneously on 5 surfaces of the 6×6 interaction array of a GLC sensor chip by EDC/NHS chemistry, no antibody was sixth immobilized on the sixth surface, but the surface was treated with the same activation and deactivation protocol as the other five surfaces. The MABs (ligands) to be tested were injected afterwards into 6 channels of the chip (in the vertical direction) and simultaneously captured at very similar capture efficiency and percentage activity. […] Data was referenced using the interspot regions between the flow channels. […] Binding experiments were repeated twice and data is represented as a mean of two independent experiments.
Assay [8] deals with T1, human IL-22. The assay can be described thus: SPR (ProteOn XPR36), antibody captured by anti-human IgG, IL-22 injected at 100 to 1.23 nM, 1:1 Langmuir fit, grouped.
Procedure: as §1, §2
Assay [9] deals with T1, human IL-22. Nature of the assay: EC50 in summary table; assay not named, taken as binding ELISA; human IL-22 (h).
The target of assay [10] is T1, human IL-22. Nature of the assay: cell-based or functional assay.
The next assay addresses T4, mouse IL-22 (mouse, UniProt Q9JJY9 34-179).
T4 construct: also called murine IL-22; IL-22(m)
T4 sequence (looked up): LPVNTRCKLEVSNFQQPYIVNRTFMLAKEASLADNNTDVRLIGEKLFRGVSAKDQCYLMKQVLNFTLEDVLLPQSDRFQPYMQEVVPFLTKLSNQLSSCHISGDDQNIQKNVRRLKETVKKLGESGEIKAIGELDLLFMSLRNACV
Nature of the assay: EC50 in summary table; assay not named, taken as binding ELISA; murine IL-22 (m). On the technique in general: ELISA stands for enzyme-linked immunosorbent assay.

Assay [11] concerns the target T2, human IL-17F. Nature of the assay: ELISA, titration of antibody 9A2 on recombinant human IL17F.
In assay [12] the target is T1, human IL-22. Nature of the assay: SPR (ProteOn XPR36), antibody captured by anti-human IgG (L2), IL-22 injected at 100 to 1.23 nM and buffer.
In another assay the target is T5, human IL-17A (human, UniProt Q16552 24-155).
T5 construct: Bought recombinant protein; also called CTLA-8
T5 sequence (looked up): T3 sequence (looked up) 1
The assay can be described thus: EC50 in summary table; assay not named, taken as binding ELISA; IL-17A (A).

Assay [13] addresses T2, human IL-17F. Nature of the assay: EC50 in summary table; assay not named, taken as binding ELISA; IL-17F (F).
In assay [14] the target is T1, human IL-22. The assay can be described thus: SPR (ProteOn XPR36), antibody captured by anti-human IgG (L3), IL-22 injected at 100 to 1.23 nM and buffer.
Assay [15] addresses T1, human IL-22. The assay can be described thus: SPR (ProteOn XPR36), antibody captured by anti-human IgG, IL-22 injected at 100 to 1.23 nM, 1:1 Langmuir fit, grouped. The source holds these as a separate data set.
Procedure: as §1, §2

Read-outs that look alike come from different tables or passages of the source.

B1: IL-22 specific antibody 51G4 (antibody, human IgG2, lambda, V domains shown)
VH: EVQLVQSGAEVKKPGASVKVSCKTSGYKFALYDIHWVRQAPGQGLEWMGWINAANGDTEYSQKFEGRVTITRDTSATTVYMELNSLTYGDTAVYYCAREEGLYNWFDPWGQGTLVTVSS
VL: SYELTQDPAVSVALGQTVRITCQGDSLRIYYANWYQQKPGQAPVLVIYGKSNRPSGIPDRFSASSSGNTASLTITGAQAEDEADYYCNSRDSSDKHPVPFGGGTKLTVLS
notes: also called a-IL-22-51G4
Molecule B1 displayed an EC50 with human IL-22 [1] of 0.067 to 0.148 µg/mL.

B2: IL-17F specific antibody 24D3 (antibody, human IgG1, lambda, V domains shown)
VH: EVKLEESGGDLVKPGGSLRLSCVASGFTFGTAWMSWVRQAPGKGLEWVGRISNKDTGGRIDYAAPVRGRFAISRDDSKATLFLQMNSLKTEDTAVYFCTTNFYDVLTGDHVDYWGQGTVVVVSS
VL: SYELTQPPSVSVSPGETARIPCSGETLPKKLVYWYQQKPGQAPVLMIYKDSERPSRISERFSGSNSGTMASLTISGVQAEDEADYYCQTSDSSGVVFGGGTKLTVLG
notes: also called a-IL17-24D3; aIL-17 24D3
On to B2, for which the binding result with human IL-22 [2] is “no binding (tested: 100 nM)”. Besides, a half-maximal response with human IL-17F [3] (EC50) required 0.002 µg/mL. Further, the “IC50 Neutralization (ng/ml); GRO-alpha production by NCTC 2544 keratinocytes” value (shortened to “IC50 Neutralization … by NCTC 2544 keratinocytes”) lay within 12 to 22 ng/mL with human IL-17F [4] and 6 to 14 ng/mL in assay [5]. This molecule came in with an on-rate (kon) with human IL-17F [6] of approximately 600000 M⁻¹ s⁻¹.

B3: IL-22 specific antibody 35G11 (antibody, human IgG4, lambda, V domains shown)
VH: QVQLVQSGSELRRPGASVNISCKASGYGFNTYAMNWVRQAPGQGPEWMGWINTDTGDPTYAQGFTGRFAFFLDTSASTAFLQITRLTGEDTAVYFCARTRNNWNGVYYHYSGLDVWGQGTTVTVSS
VL: QSVLTQPPSASGTPGQTVTISCSGSSPNLGDNYVYWYHQVPGTAPKLLIFRNTQRPSGVTDRFSGSKYGTSASLAISDLRSDDEGDFYCASWDDRLSRLVFGGGTKLTVLG
notes: also called a-IL-22-35G11; aIL-22 35G11
Molecule B3 registered a dissociation constant (Kd) with human IL-22 [7] of 0.039 nM. Also, it took 0.007 µg/mL to reach a half-maximal effect with human IL-22 [1] (EC50). In the assay with human IL-22 [8], this molecule showed a Kd of 0.0457 nM, an off-rate (koff) of 8.09e-05 s⁻¹ and a kon of 1.77e+06 M⁻¹ s⁻¹. Besides, the binding result with human IL-17F [6] is recorded as “no binding (tested: 100 nM to 1.23 nM)”.

B4: IL-22 specific antibody 41D11 (antibody, human IgG1, lambda, V domains shown)
VH: QVQLHESGPGLVKPSETLSVTCSLSGGSISSSSHLWAWIRQPPEKGLEYIGRIHYRGSVSYNPSLKSRAAISVDTAKNQFSLTLSAVTAADTSFYYCARLDMGAIDKWGQGTLVIVSS
V domain: QPVLTQSPSASASLGASIKLTCTLSSGHSNYDIAWHQQQSGKGPRFLMRVNNGGSHNKGDGIPDRFSGSSSGAERYLTISSLQSEDEADYYCQTWGTGTHVFGTG
notes: also called a-IL-22-41D11
On to B4, for which the EC50 in the assay with human IL-22 [9] was 0.005 µg/mL; in the assay with mouse IL-22, 0.06 µg/mL. The “IC50 Neutralization (ng/ml); IL-10 production by Colo205 cells” value with human IL-22 [10] turned out to be 38 ng/mL.

B5: IL-17F specific antibody 9A2 (antibody, human IgG1, kappa, V domains shown)
VH: EVQLEESGGGLVQPGGSLRLSCAASGFPFSNYEMNWVRQAPGKGLEWISYISVSGGPAHYADSVKGRFTISRDDATKSLFLQMNRLRADDTAVYYCVRREYVTGRNYNYYPYMDVWGTGTTVTVSP
VL: DIQMTQSPSSLSASVGDRVTITCRASQTISDYLNWYQHKPGEAPKLLIYSASTLQRGVPSRFSGSGSGTDFVFTISSLQSDDFATYYCQQTSSTALTFGGGTKVEVKR
notes: also called a-IL17-9A2
For the molecule B5, in the assay with human IL-17F [11], the “EC50 (read off the curve)” value is approximately 0.02 µg/mL. Moreover, the EC50 in the assay with human IL-17F [3] was found to be 0.003 µg/mL. In addition, in the assay with human IL-22 [12], the binding result was “no binding (tested: 100 nM)”. In addition, in the assay with human IL-17F [4], the “IC50 Neutralization … by NCTC 2544 keratinocytes” value was determined as 45 ng/mL. Further, the kon in the assay with human IL-17F [6] was approximately 800000 M⁻¹ s⁻¹.

B6: IL-17F and IL-17A specific antibody 17E3 (antibody, human IgG1, kappa, V domains shown)
VH: QVQLVQSGAEVAKPGASVRLSCKASGFSFIKYYMHWVRQAPGQGLEWMGVIEPTGGGTSSAQKFRDRVTLSRDTSTATVHLEVSRLTLEDTGIYFCVRDSIYCKHGTCHRTVIDAFDIWGQGTAVTVSS
VL: DIQMTQSPSSLSASVGDRVTITCRSSQDIKNDLAWYQQKPGKAPERLIYAASNLQSGVPSRFSGSGSGTEFSLTISGLQPEDFATYYCLQHNSYPLLTFGGGTKVEIKR
notes: also called a-IL17-17E3
Consider B6, for which the EC50 with human IL-17A is 0.824 µg/mL; in the assay with human IL-17F [13] it was 0.002 µg/mL. Also, in the assay with human IL-22 [14], the binding result was “no binding (tested: 100 nM)”. For the same molecule, the figures for the “IC50 Neutralization … by NCTC 2544 keratinocytes” value (with human IL-17F [4]; in [5]) were 15 ng/mL and 12 ng/mL, respectively. This molecule also returned an on-rate constant (kon) with human IL-17F [6] of approximately 300000 M⁻¹ s⁻¹.

B7: IL-22 specific antibody 30G1 (antibody, human IgG1, kappa, V domains shown)
VH: EVQLLESGGGLVQPGGSLRLSCAASGFTFSTYAMSWVRQAPGKGLEWVSTITSSGGATYHADSVKGRLTISRDNSKNTLYLEMNSLRVEDTAVYYCAKDWGRTVYAVIKDLDIWGQGTLVTVSS
VL: EIVMTQSPAILSVSPGERATLSCRASQSVSNYLAWFQQKPGQAPRLLIYDTSKRATGTPARFSGSGSGTDFTLTISSLEPEDFAVYFCQQRSDWPQYTFGQGTKLEIKR
notes: also called aIL-22 30G1
In turn, B7 displayed a Kd with human IL-22 [7] of 0.0365 nM. Further, in the assay with human IL-22 [15], binding was characterised by a dissociation constant (Kd) of 0.0352 nM, the koff is 1.55e-05 s⁻¹ and the kon amounted to 441000 M⁻¹ s⁻¹. This molecule showed an EC50 with human IL-22 [9] of 0.003 µg/mL. Moreover, the binding result in the assay with human IL-17F [6] is reported as “no binding (tested: 100 nM to 1.23 nM)”. The molecule further displayed a concentration giving a half-maximal response (EC50) in the assay with mouse IL-22 of 0.015 µg/mL.
